Assays:
[1] = biological target: SPP1 tails carrying gp16.1 and lacking gp17 (bacteriophage SPP1) (UniProt O48449)
[2] = biological target: SPP1 tails lacking gp16.1 and gp17 (bacteriophage SPP1) (UniProt O48449)

B1: gp17 of bacteriophage SPP1, purified (natural protein)
chain: MTWKLASRALQKATVENLESYQPLMEMVNQVTESPGKDDPYPYVVIGDQSSTPFETKSSFGENITMDFHVWGGTTRAEAQDISSRVLEALTYKPLMFEGFTFVAKKLVLAQVITDTDGVTKHGIIKVRFTINNN
Binder B1 has an infectious particles formed in vitro in SPP1gp17− extract (tails with endogenous gp16.1) against 0.003–20 µM purified gp17; gp17 concentration at the plateau [1] of 6 µM and an infectious particles formed in vitro in SPP1gp16.1−-gp17− extract with 20 µM purified gp16.1 added, against purified gp17; gp17 concentration at the plateau [2] of 0.2 µM.

Reference: paper PMC11099176
